We go through four compounds from US5246838A, “Processing of proteins” (priority 1990, dated 1993).

The test system of test [1] is E. coli cells containing pSPB plasmids (beta-lactamase with the indicated signal peptide). The experiment in a line: Ampicillin resistance in E. coli carrying pSPB plasmids (colony formation). In kind it is cell-based. From the text:
described in Materials and Methods. Resistance to ampicillin was defined
as the maximal concentration of the antibiotic at which 100% of the E.
coli cells could form colonies. Plasmids indicated by pSPA . . . contain
amylase with the indicated signal peptide, plasmids indicated by pSPB . .
. contain lactamase with the indicated signal peptide.

Test [2] concerns the target pre(A13i)-β-lactamase (B. subtilis; E. coli) (UniProt P62593).
The target in test [3] is truncated pre-β-lactamase (E.coli) (UniProt P62593).
The target in test [4] is wild-type TEM pre-β-lactamase (E.coli) (UniProt P62593).
The target of test [5] is pre(A13i)-β-lactamase (B. subtilis; E. coli) (UniProt P62593). Particulars: scale: % of all the.
The target of test [6] is pre(A2)-β-lactamase (E. coli) (UniProt P62593).
Test [7] concerns the target pre(A2d)-β-lactamase (E. coli) (UniProt P62593).
The target in test [8] is pre(A42)-β-lactamase (E. coli) (UniProt P62593).

Bounds are passed on as bounds.

On to `CC1(C)S[C@@H]2[C@H](NC(=O)[C@H](N)c3ccccc3)C(=O)N2[C@H]1C(=O)O` [ampicillin], for which the “E. coli amp. resist. (maximal concentration of the antibiotic at which 100% of the E. coli cells could form colonies)” value in test [1] (E. coli containing pSPB-A2) amounted to 300 µg/mL; in test [1] (E. coli containing pSPB-A13), 300 µg/mL; in test [1] (E. coli containing pSPB-A13i), 100 µg/mL; in test [1] (E. coli containing pSPB-A42), 20 µg/mL; in test [1] (E. coli containing pSPB-A2d), 500 µg/mL; in test [1] (E. coli containing pSPB-A42d), 100 µg/mL.

On to B. subtilis SPase I (enzyme), for which the t50, time necessary to obtain equal amounts of the precursor and the mature forms, pulse-chase labeling in B. subtilis DB104 in test [2] amounted to 6 min.

As to “E.coli SPase I (signal peptidase I) (from UniProt P00803) (enzyme)”, in test [3], the fraction unprocessed truncated (P') lactamase, pulse-chase labeling, samples 15 s after the chase turned out to be 63%. This compound also gave a fraction unprocessed wildtype (P) lactamase, pulse-chase labeling, samples 15 s after the chase in test [4] of 15%. Also, the relative amount of mature enzyme, pulse-chase labeling in E.coli C600 in test [5] fell in the range of 6 to 7. Besides, the values for the t50, time necessary to process 50% of the precursor, pulse-chase labeling in E.coli C600 in test [6], in test [7] and in test [8] were 2.2 min, under 1 min and 15 min, respectively.

Compound S.typhimurium SPase I (enzyme) registered a fraction unprocessed truncated (P') lactamase, pulse-chase labeling, samples 15 s after the chase in test [3] of 60%. In test [4], this compound gave a fraction unprocessed wildtype (P) lactamase, pulse-chase labeling, samples 15 s after the chase of 16%.
